Measured values reported in the nanobody polyreactivity screen of Harvey et al. (2022).

Test: yeast display, Sf9 membrane polyspecificity reagent, FACS + sequencing; frameworks hold sequencing errors
Summary of the method: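 Sorting gates, low and high (top ~1%), were placed on anti-HA fluorescence to track expression and on streptavidin fluorescence to track reagent binding. A clone's polyreactivity label is taken from the gate it came out of. The reagent was 10% biotinylated, detergent-solubilized Sf9 membrane, applied for 1 hour at 4 °C to galactose-induced yeast display cells.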

Sequence | polyreactivity (PSR sort gate)
QVQLVESGGGLVQAGGSLRLSCAASGITFYSYTMGWYIQAPGKERELVAAISDNGGRTFYADSVKGRFTISRDNAKNTVYLQMNSLKPEDTAVYYCAADSYWYRFLKSRYDYWGQGTQVTVSS | low polyreactivity
QVQLVESGGGLVQAGGSLRLSCAASGITFYSYTMGWYRQAPGKERELVAAISDNGGRTFYADSVKGRFTISRDNAKNTVYLQMNSLKPEDTAVDYCAADYSYYTSFRYDYWGQGTQVTVSS | low polyreactivity
QVQLVESGGGLVQAGGSLRLSCAASGITFYTYTMGWYRQAPGKERELVAAISRSSGRTYYADSVKGRFTISRDNAKNTVYLQMNSLKPEDTAVYYCAAYAVESYKYDYWGQGTQVTVSS | high polyreactivity
QVQLVESGGGLVQAGGSLRLSCAASGITFYVNAMGWYRKAPGKERELVAGITLSGDSTYYADSVKGRFTISRDNAKNTVYLQMNSLKPEDTAVYYCAVEGGLWWPYTYYYWGQGTQVTVSS | high polyreactivity
QVQLVESGGGLVQAGGSLRLSCAASGITFYVYAMGWYRPAPGKVRELVAAINYDSGSTYYADSVKGRFTISRDNAKNTVYLQMNSLKPEDTAVYYCATDGVNPFYAYDYWGQGTQVTVSS | low polyreactivity
QVQLVESGGGLVQAGGSLRLSCAASGITFYWYTMGWYRQAPGKERELVADIEGDGGSTYYADSVKGRFTISRDNAKNTVYLQMNSLKPEDTAVYYCAAQVWPWGYDYWGQGTQVTVSS | high polyreactivity
QVQLVESGGGLVQAGGSLRLSCAASGITFYYNAMGWYRQAPGKERELVAAIRSAGSTYYADSVKGRFTISRDNAKNTVYLQMNSLKPEDTAVYYCAAEDGTTDQVRVYWIMDYWGQGTQVTVSS | low polyreactivity
QVQLVESGGGLVQAGGSLRLSCAASGITFYYYAMGWYRQAPGKERELVAAISDNGSRTYYADSVKGRFTISRDNAKNTVYLQMNSLKPEDTAVYYCAAEGSYGYDYWGQGTQVTVSS | high polyreactivity
QVQLVESGGGLVQAGGSLRLSCAASGITFYYYAMGWYRQAPGKERELVAAISRSGGRTYYADSVKGRFTISRDNAKNTVYLQMNSLNPEDTAVYYCAAVRYQGGDSSIEYDYWGQGTQVTLSS | high polyreactivity
QVQLVESGGGLVQAGGSLRLSCAASGITFYYYTMGWYRQAPGKERELVAGITYRGGRTYYADSVKGRFTISRDNAKNTVYLQMNSLKPEDTAVYYCAADDLGWWFYSGGEDYYYWGQGTQVTVSS | low polyreactivity
QVQLVESGGGLVQAGGSLRLSCAASGITIFGYAMGWYRQAPGKERELVAAINYSGDSTYYADSVKGRFTISRDNAKNTVYLQMNSVKPEDTAVYYCAATRSYRQPGPKYKSYYYLYYYWGQGTQVTVSS | high polyreactivity
QVQLVESGGGLVQAGGSLRLSCAASGITIFRYALGWSRQAPGKERELVAAISSSGGSTYYADSVKGRFTISRDNAKNTVYLQMNSLKPEDTAVYYCAAAHGYRYYWGQGTQVTVSS | high polyreactivity
QVQLVESGGGLVQAGGSLRLSCAASGITIGRYAMGWYRPAPGKERELVAAISSTGGRTYYADSVKGRFTISRDNAKNTVYLQMNSLKPEDTAVYYCAAGRRRPFGRNDYWGQGTQVTVSS | high polyreactivity
QVQLVESGGGLVQAGGSLRLSCAASGITIKRYAIGWYRQAPGKEREFVATISQSGTSTYYADSVKGRFTISRDNAMNTVYLQMNSLKPEDTAVYYCAADYIGYWYGYYSWGQGTQVTVSS | low polyreactivity
QVQLVESGGGLVQAGGSLRLSCAASGITIKRYAMVWYSQAHGKEREFVATISQSGTSTYYADSVKGRFTISRDNAKNTVYLQMNSLKPEDTAVYYCAADYIGYWYGYYSWGQGTKVTVSS | low polyreactivity
QVQLVESGGGLVQAGGSLRLSCAASGITIPVYMGWYRQPPGKERELVASISTIGGTTYYADSVKGRFTITRDNAKNTVYLQMNRLKPEDSAVYYCAADHPWSWYDYWGQGTQVTVSW | low polyreactivity
QVQLVESGGGLVQAGGSLRLSCAASGITIRRYAMGWYRQAPGKERELVAAITYSGGGSTYYADSVKGRFTISRDNAKNTVYLQMNSLKPEDTAVYYCAAGWYPWGYYSGYISYEYWGQGTQVTVSS | high polyreactivity
QVQLVESGGGLVQAGGSLRLSCAASGITIRYNAMGWYRQAPGKERELVAAISRGGDRTYYADSVKGRFTISRDNAKNTVYLQMNSLKPEDTAVYYCAADWSEKYEYWGQGTQVTVSS | high polyreactivity
QVQLVESGGGLVQAGGSLRLSCAASGITISPNAMGWYRQAPGKERELVAAIDWSGDRTYYADSVKGRFTISRDNAKNTVYLQINSLKPEDTAVYYCNVVRRSPGDYSYYYWGQGTQVTVSS | low polyreactivity
QVQLVESGGGLVQAGGSLRLSCAASGITISVNDMGWYRQAPGKERELVAAISSGDSTNYADSVKGRFTISRDNAKNTVYLQMNSLKPEDTAVYYCAALEGSLTGWQTYDYWGQGTQVSVSS | low polyreactivity
QVQLVESGGGLVQAGGSLRLSCAASGITIVNYVMGWYRQAPGKERELVAAISIGGGTYYADSVKGRFTISRDNAKNTVYLQRNSLKPEDTAVYYCNATFGGLSFYIGVYVTGYDYWGQGTQVTVSS | low polyreactivity
QVQLVESGGGLVQAGGSLRLSCAASGITIWWYAMGWYRQAPGKERELLAAITGGGSTNYADSVKGRFTISRDNAKNTVYLQMNSLKPEDTAVYYCAATGSPARNWDTVTGYYYWGQGTQVTVSS | low polyreactivity

Sequence | polyreactivity (PSR sort gate)
QVQLVESGGGLVQAGGSLRLSCAASGITIYAYAMGWSRQAPGKERELVAAINWSGGRTFYADSVKGRFTISRDNAKNTDYLQMNSLKPEDTAVYYCAAAYTRSYSWARGYDYWGQGTQVTVSS | high polyreactivity
QVQLVESGGGLVQAGGSLRLSCAASGITIYRYAMGWYRQAPGKERELVATITWSGGSTYYADSVKGRFTISRDNAKNTVYLQMNSLKPEDTALYYCAAYSPYIYQAYRYDYWGQGTQVTVSS | low polyreactivity
QVQLVESGGGLVQAGGSLRLSCAASGITLDRYAMGWYRQAPGKERELVAAISRSTTSTYYADSVKGRFTISRDNAKNTVYLQMNSLKREDTAVYYCATRTYRVDPEYGYWGQGTQVTVSS | high polyreactivity
QVQLVESGGGLVQAGGSLRLSCAASGITLDVNAMGWYRQAPGKERELVADITWSDDSTYYADSVKGRFTISRDNAKNTVYLQMNSLKPEDTAVYYCAADVSVSFHPRGYDYWGQGTQVTVSS | low polyreactivity
QVQLVESGGGLVQAGGSLRLSCAASGITLGRYAMGWYRQAPGKERELVAAISRSGGSTYYADSVKGRFTISRDNEKNTVYLLMNSLKPEDTAVYYCNRRVYPTSDYDYWGQGTQVTVSS | high polyreactivity
QVQLVESGGGLVQAGGSLRLSCAASGITLPAYTMGWYRQAPGKERELVAAISWGGTSTYYADSVKGRFTISRDNAKNTVYLQMNSLKPEDTAVYYCNKAYATYPGYDYWGQGTQVTLSS | high polyreactivity
QVQLVESGGGLVQAGGSLRLSCAASGITLPYYAMGWYRQAPGKERELVAGISSRGGSTYYADSVKGRFTISRDNAKNTVYLQMNSLKPEDTAVYYCAAKVASTRLGPAYGYWGQGTQVTVSS | high polyreactivity
QVQLVESGGGLVQAGGSLRLSCAASGITLSRNAMGWYRQAPGKERELVAAITWRTDRTYYADSVKGRFTISRDNAKNTVYLQMNSLKPEDTAVYYCAARTTVSSARYDYWGQGTQVTVSS | high polyreactivity
QVQLVESGGGLVQAGGSLRLSCAASGITLSWYAMGWYRQAPGKERELVAGISGRGGRTYYADSVKGRFTLSRDNAKNTVYLQMNSLKPEDTAVYYCAADSPGYRSYDYWGQGTQVTVSS | high polyreactivity
QVQLVESGGGLVQAGGSLRLSCAASGITLWQYAMGWYRQAPGKERELVAGITDTGDSTYYADSVKGRVTISRDNAKNTVYLQMNSLKPEDTAVYYCAVPRSALLRAPYELYSWGQGTQVTVSS | low polyreactivity
QVQLVESGGGLVQAGGSLRLSCAASGITLYDNAMGWYRQAPGKERELVAAINVNDVSTYYADSVKGRFTISRDNAKNTVYLQMNSLKPEDTAVYYCAADSLYYGIGYWVVRYDYWGQGTQVTVSS | low polyreactivity
QVQLVESGGGLVQAGGSLRLSCAASGITLYFYAMGWYRQAPWKERELVAAISRGGRTYYADSVKGRFTISRDNAKNTVYLQMNSLKPEDTAVYYCAARYTSEYSAFDYWGQGTQVTVSS | low polyreactivity
QVQLVESGGGLVQAGGSLRLSCAASGITLYGNVMGWYRQAPGKERELVAAISGGSTFYADSVKGRFTISRDNAKNTVYLQMNSLKPEDTAVYYCSAEGYGYGSNVPYYYWGQGTQVTVSS | low polyreactivity
QVQLVESGGGLVQAGGSLRLSCAASGITLYRYAMGCYRQAPGKERELVADISSGGGTTYYADSVKGRFTISRDNAKNTVYLQMNSLKPEDTAVYYCAADYGFRYPLYDYWGQGTQVTVSS | low polyreactivity
QVQLVESGGGLVQAGGSLRLSCAASGITLYRYAMGWYRQAPGKERELVADISSGGGTTYYADSVKGRFTISRDNAKNTVYLQMNSLKPEDTAVYYCAADYGFRYPLYDYWGQGTQVTVSS | low polyreactivity
QVQLVESGGGLVQAGGSLRLSCAASGITLYWYAMGWYRPAPGKERELVAAISRRGGTTYYADSVKGRFTISRDNAKNTVYLQMNSLKPEDTAVYYCAKAPDTQTSWSRQEGNYWGQGTQVTVSS | low polyreactivity
QVQLVESGGGLVQAGGSLRLSCAASGITSDQNAMGWYRQAPGKERELVAAISWSGGSTYYADSVKGRFTISRDNAKNTVYLQMNSLKPEDTAVYYCAADIYTAYYEFDYWGQGTQVTVSS | low polyreactivity
QVQLVESGGGLVQAGGSLRLSCAASGITSGNNALGWYRQAPGKERELVAALSWTGGSTYYADSVKGRFTISRDNAKNTVYLQMNSLKPEDTAVYYCAAKGLRYRDIDYDYWGQGTQVTVSS | low polyreactivity
QVQLVESGGGLVQAGGSLRLSCAASGITSRFNAMGWYRQAPGKERELVAAISSRGTSTYYADSVKGRFTISRDNAKNTVYLQMNTLKPEDTAVYYCAVSQRAPKFPGDYWGQGPQVTVSS | high polyreactivity
QVQLVESGGGLVQAGGSLRLSCAASGITSRQYAMGWYRQAPGKERELVAAISFSGGRTYYADSVKGRFTISRDNAKNTVYLQMNSLKPEVTAVYYCATRNRYSPRDYWGQGTQVTVSS | high polyreactivity
QVQLVESGGGLVQAGGSLRLSCAASGITSTVYAMGWYRQAPGKERELVAGISWSTSSTYYADSVKGRFTISRDNAKNTVYVQMNSLKPEDTAVYYCAKAGAYKYGYWGQGTQVTVSS | high polyreactivity
